According to patent publication US20230192878A1, “METHODS, THERAPIES AND USES FOR TREATING CANCER” (PFIZER INC., priority 2020, published 2023):

Legend:
[1] = test system: OPM2; assay: Cell surface BCMA expression after GSI, concentration series; type: cell-based; settings: 24 hours
Protocol: (§1) Multiple myeloma cells (MM.1S, OPM2, H929, Molp8, RPMI8226) were seeded in a 96-well U bottom plate at 40,000 cells/well. Cells were incubated for 24 hours in the presence of GSI diluted in RPMI (0.1% DMSO). The following concentrations of the GSI were tested: 1000 nM, 500 nM, 100 nM, 50 nM, 25 nM, 10 nM, 5 nM, 2.5 nM, 1 nM, 0.1 nM, 0.01 nM. 24 hours later cells were collected and washed with PBS+2% FBS, followed by staining with ZombieNIR Viability Dye (Biolegend) at 1 in 500 dilution in PBS at room temperature for 20 minutes. Next, cells were washed with PBS+2% FBS and stained with anti-BCMA PE-labelled antibody (Biolegend) diluted in PBS+2% FBS for 30 minutes at 4° C. Cells were acquired on BD Flow Cytometer and analyzed using FlowJo flow cytometry analysis software. Dead cells were removed from analysis by gating on ZombieNIR negative population. BCMA mean fluorescence intensity (MFI) was plotted against GSI concentration to establish EC50.

[2] = test system: H929; assay: as above; type: cell-based; settings: 24 hours
Protocol: as §1

[3] = test system: MM.1S; assay: as above; type: cell-based; settings: 24 hours
Protocol: as §1

[4] = First in human Phase 1 clinical study: safety (CRS, DLT); type: in vivo
From the text: This Example illustrates an ongoing Phase 1 open-label, multicenter clinical study of PF-06863135 (BCMAxCD3 bispecific) as monotherapy and in combination with sasanlimab, lenalidomide or pomalidomide, in adult patients with advanced multiple myeloma who have relapsed from or are refractory to standard therapy. The study has been registered on ClinicalTrials.gov with identifier NCT03269136 and was first posted August 2017. Study results for Part 1 of the trial and additional arms for the study are described in this Example.
Part 1 of the Study is the […] single agent dose escalation arm at the dose levels of 0.1, 0.3, 1, 3, 10, 30, and 50 μg/kg Q1W by intravenous (IV) administration, and at the dose levels of 80, 130, 215, 360, 600 and 1000 μg/kg Q1W by subcutaneous (SC) administration. Upon reaching maximum tolerated dose (MTD)/maximum administered dose (MAD), patients can be treated at a dose level selected from the foregoing dose levels described in this paragraph, and below the MTD/MAD fora Q2W administration, both IV and SC, to further support the recommended phase 2 dose (RP2D) decision. For the study, dose limiting toxicity observation period is set at 21 days for Q1W dosing and 28 days for Q2W dosing. The treatment cycle, aka cycle, for Q1W dosing would be 3 weeks, and for Q2W dosing would be four weeks.
Clinical Outcome of Part 1 of the Study. As of 15 Apr. 2020, a total of 23 patients were enrolled in Part 1 of the study and had been treated with PF-06863135 administered intravenously (IV) at 0.1 (N=2), 0.3 (N=3), 1 (N=2), 3 (N=3), 10 (N=2), 30 (N=5), and 50 (N=6) μg/kg. As of Aug. 21, 2020, a total of 30 patients were enrolled in Part 1 of the study and had been treated with PF-06863135 administered subcutaneously (SC) at 80 (N=6), 130 (N=4), 215 (N=4), 360 (N=4), 600 (N=6) and 1000 (N=6) μg/kg. Safety and efficacy data were available for in 23 IV and 30 SC treated patients per IMWG (International Myeloma Working Group) criteria.
Part 1.1 of the Study is an alternative maintenance dose escalation arm for single agent PF-06863135. If excessive toxicity occurs or the maximum tolerated dose (MTD)/maximum administered dose (MAD) is reached at a dose level that is earlier than desired in Part 1 of the study described above, a priming dose will be administered one week prior to the day 1 cycle 1 administration of the dose (maintenance dose) at this dose level and for all subsequent dose levels in the dose escalation that may be initiated for Part 1.1. The priming dosing will be at a lower dose level than the maintenance dose.

[5] = 600 μg/kg priming, 1000 μg/kg Q1W or Q2W SC, N = 20

For `CCC[C@H](N[C@H]1CCc2cc(F)cc(F)c2C1)C(=O)Nc1cn(C(C)(C)CNCC(C)(C)C)cn1` [GSI, nirogacestat], the “BCMA (-PE) MFI” value ([1]; OPM2, GSI 0.01 nM) was 2093.5, the “BCMA (-PE) MFI” value ([1]; OPM2, GSI 0.1 nM) was 2079.5 and the “BCMA (-PE) MFI” value ([1]; OPM2, GSI 1 nM) was 2185. For the same compound, the “BCMA (-PE) MFI” value ([1]; OPM2, GSI 2.5 nM) was 2358.5, the “BCMA (-PE) MFI” value ([1]; OPM2, GSI 5 nM) was 2788.5 and the “BCMA (-PE) MFI” value ([1]; OPM2, GSI 10 nM) was 3190.5. For the same compound, the “BCMA (-PE) MFI” value ([1]; OPM2, GSI 25 nM) was 6575.5, the “BCMA (-PE) MFI” value ([1]; OPM2, GSI 50 nM) was 10863 and the “BCMA (-PE) MFI” value ([1]; OPM2, GSI 100 nM) was 14364. The “BCMA (-PE) MFI” value ([1]; OPM2, GSI 500 nM) was 15910.5, the “BCMA (-PE) MFI” value ([1]; OPM2, GSI 1000 nM) was 14747.5 and the “BCMA (-PE) MFI” value ([2]; H929, GSI 0.01 nM) was 4824.5. For the same compound, the “BCMA (-PE) MFI” value ([2]; H929, GSI 0.1 nM) was 5305.5, the “BCMA (-PE) MFI” value ([2]; H929, GSI 1 nM) was 8615.5 and the “BCMA (-PE) MFI” value ([2]; H929, GSI 2.5 nM) was 10344.5. For the same compound, the “BCMA (-PE) MFI” value ([2]; H929, GSI 5 nM) was 13226, the “BCMA (-PE) MFI” value ([2]; H929, GSI 10 nM) was 15670 and the “BCMA (-PE) MFI” value ([2]; H929, GSI 25 nM) was 18445.5. For the same compound, the “BCMA (-PE) MFI” value ([2]; H929, GSI 50 nM) was 17424.5, the “BCMA (-PE) MFI” value ([2]; H929, GSI 100 nM) was 19455.5 and the “BCMA (-PE) MFI” value ([2]; H929, GSI 500 nM) was 20285.5. For the same compound, the “BCMA (-PE) MFI” value ([2]; H929, GSI 1000 nM) was 21156, the “BCMA (-PE) MFI” value ([3]; GSI 0.01 nM) was 15589.5 and the “BCMA (-PE) MFI” value ([3]; GSI 0.1 nM) was 15775.5. The “BCMA (-PE) MFI” value ([3]; GSI 1 nM) was 14396, the “BCMA (-PE) MFI” value ([3]; GSI 2.5 nM) was 21412.5 and the “BCMA (-PE) MFI” value ([3]; GSI 5 nM) was 28832. The “BCMA (-PE) MFI” value ([3]; GSI 10 nM) was 31248, the “BCMA (-PE) MFI” value ([3]; GSI 25 nM) was 37026.5 and the “BCMA (-PE) MFI” value ([3]; GSI 50 nM) was 38111. The “BCMA (-PE) MFI” value ([3]; GSI 100 nM) was 37582.5, the “BCMA (-PE) MFI” value ([3]; GSI 500 nM) was 35780 and the “BCMA (-PE) MFI” value ([3]; GSI 1000 nM) was 35780.
For “PF-06863135: heterodimeric humanized full-length bispecific antibody with one BCMA binding arm and one CD3 binding arm”, the “CRS observed, patient(s)” value ([4]; 10 μg/kg IV cohort) was 1 (50.0%), the “CRS observed, patient(s)” value ([4]; 30 μg/kg IV cohort) was 4 (80.0%) and the “Patients who experienced dose limiting toxicities (DLTs)” value ([4]; 30 μg/kg IV cohort) was 1 patient. For the same compound, the “Patients in whom CRS also occurred after later doses (second to fourth)” value ([4]; 50 μg/kg IV) was 3 patients, the “CRS observed, patient(s)” value ([4]; 50 μg/kg IV cohort) was 6 (100.0%) and the “Patients who experienced dose limiting toxicities (DLTs)” value ([4]; 50 μg/kg IV cohort) was 1 patient. The “CRS Grade 1 (patients)” value ([4]; 80 μg/kg Q1W SC, N = 6) was 2, the “CRS Grade 2 (patients)” value ([4]; 80 μg/kg Q1W SC, N = 6) was 1 and the “CRS Mean duration” value ([4]; 80 μg/kg Q1W SC, N = 6) was 1 days. The “Patients with CRS” value ([4]; 80 μg/kg Q1W SC, N = 6) was 3 (50%), the “CRS Grade 1 (patients)” value ([4]; 130 μg/kg Q1W SC, N = 4) was 2 and the “CRS Grade 2 (patients)” value ([4]; 130 μg/kg Q1W SC, N = 4) was 0. For the same compound, the “CRS Mean duration” value ([4]; 130 μg/kg Q1W SC, N = 4) was 3 days, the “Patients with CRS” value ([4]; 130 μg/kg Q1W SC, N = 4) was 2 (50%) and the “CRS Grade 1 (patients)” value ([4]; 215 μg/kg Q1W SC, N = 4) was 3. For the same compound, the “CRS Grade 2 (patients)” value ([4]; 215 μg/kg Q1W SC, N = 4) was 0, the “CRS Mean duration” value ([4]; 215 μg/kg Q1W SC, N = 4) was 3 days and the “Patients with CRS” value ([4]; 215 μg/kg Q1W SC, N = 4) was 3 (75%). For the same compound, the “CRS Grade 1 (patients)” value ([4]; 360 μg/kg Q1W SC, N = 4) was 2, the “CRS Grade 2 (patients)” value ([4]; 360 μg/kg Q1W SC, N = 4) was 1 and the “CRS Mean duration” value ([4]; 360 μg/kg Q1W SC, N = 4) was 1.7 days. The “Patients with CRS” value ([4]; 360 μg/kg Q1W SC, N = 4) was 3 (75%), the “CRS Grade 1 (patients)” value ([4]; 600 μg/kg Q1W SC, N = 6) was 4 and the “CRS Grade 2 (patients)” value ([4]; 600 μg/kg Q1W SC, N = 6) was 2. The “CRS Mean duration” value ([4]; 600 μg/kg Q1W SC, N = 6) was 1.7 days, the “Patients with CRS” value ([4]; 600 μg/kg Q1W SC, N = 6) was 6 (100%) and the “Decrease of medium duration of CRS by introducing priming dose” value ([4]; 600 μg/kg priming then 1000 μg/kg vs 1000 μg/kg without priming, SC) was 50%. For the same compound, the “CRS Grade 1 (patients)” value [4, 5] was 11, the “CRS Grade 2 (patients)” value [4, 5] was 9 and the “CRS Mean duration” value [4, 5] was 2 days. For the same compound, the “Patients with CRS” value [4, 5] was 20 (100%), the “CRS Grade 1 (patients)” value ([4]; 1000 μg/kg Q1W SC, N = 6) was 5 and the “CRS Grade 2 (patients)” value ([4]; 1000 μg/kg Q1W SC, N = 6) was 1. For the same compound, the “CRS Mean duration” value ([4]; 1000 μg/kg Q1W SC, N = 6) was 4 days, the “Patients with CRS” value ([4]; 1000 μg/kg Q1W SC, N = 6) was 6 (100%) and the “Patients who experienced dose limiting toxicities (DLTs)” value ([4]; IV cohorts, 23 patients, febrile neutropenia Grade 3 and electrocardiogram QT prolongation Grade 1) was 2 patients. For the same compound, the “CRS onset after dosing” value ([4]; IV cohorts, each of the 11 patients with CRS) was at most 2 days, the “Impact of dose frequency (Q1W v. Q2W) on the CRS” value ([4]; Part 1.1, 600 μg/kg priming, 1000 μg/kg SC) was “no impact” and the “Patients who experienced dose limiting toxicities (DLTs)” value ([4]; SC cohorts (80-1000 μg/kg)) was “No patients”. For the same compound, the “CRS onset after dosing” value ([4]; SC cohorts, primarily) was at most 2 days, the “Patients who experienced maximum Grade 1 CRS” value ([4]; all IV treated patients) was 6 (26.1%) and the “Patients who experienced maximum Grade 2 CRS” value ([4]; all IV treated patients) was 5 (21.7%). For the same compound, the “Patients who experienced maximum Grade 1 CRS” value ([4]; all SC treated patients) was 18 (60.0%), the “Patients who experienced maximum Grade 2 CRS” value ([4]; all SC treated patients) was 5 (16.7%) and the “CRS severity in SC-treated vs IV-treated patients” value ([4]; despite higher overall dose exposure in SC-treated patients) was “less severe CRS”. For the same compound, the Toxicities ([4]; highest dose levels of 600 and 1000 μg/kg SC) was “tolerable and manageable”.
